Data as given in patent US20120207760A1 (THERACLONE SCIENCES, published 2012).

B1: TCN-534 (5249_B02) (antibody, V domains shown)
VH: QVQLVQSGAEVKKPGSSVKVSCRESGGTFNGYTITWVRQAPGQGLEWMGGIIPMMGTVNYAQKLQGRVTITTDYFTKTAYMDLNNLRSEDTAMYYCVKIRYTGQQLLWGQGTLVTVSS
VL: DIQMTQSPSTLSASIGDRVTITCRASQSIASWLAWYQQKPGKAPKLLIYEAVNLESGVPSRFSGSGSGTDFTLTISSLQPDDFATYFCQHYGTISQTFGGGTKVEIK
B2: TCN-531 (5091_H13) (antibody, V domains shown)
VH: EVQLVESGGDLVQPGRSLKLSCTGSGFTFGDYGVTWVRQAPGKGLEWVGFIRTRPWGGTADTAASVKGRFTISRDDSKSLAYLQMNSLKTEDTAVYYCCRDAPPNVEVASMTNWYFDLWGRGTLVTVSS
VL: DIQLTQSPSSLSASVGDRVTITCRASQGILNCLAWYQQKPGKVPNLLMYAASTLQSGVPSRFSGSGFGTDFTLTISSLQPEDVATYYCQTYGGVSTFGGGTKVEIR
B3: TCN-523 (5248_A17) (antibody, V domains shown)
VH: QVQLVQSGAEVKKPGSSVKVSCKASGGSFSNYAFSWVRQAPGQGLEWMGGTIPLLGTTNYAQKFQGRVTISADQFTSTAYMELGSLRSEDTAVYYCTRRKMTTAFDSWGQGTLVTVSS
VL: QPVLTQPPSASASLGASVTLTCTLSSAYSNYKVDWYQQRPGKGPRFVMRVGTGGIVGSKGDGIPDRFSVLGSGLNRYLTIKNIQEEDESDYHCGADHGSGSNFVSPYVFGGGTKLTVL
B4: TCN-563 (5237_B21) (antibody, V domains shown)
VH: QVQLAQSGAEVKRPGSSVKVSCTASGGIFRKNAISWVRQAPGQGLEWMGGIIAVFNTANYAQKFQGRVKITADESGNTAYMELSSLRSDDTAVYYCASHPKYFYGSGSYPDFWGQGTLVTVSS
VL: QSALTQPRSVSGSPGQSVTISCTGSSSDVGASNSVSWYQQHPGKAPKLVIYDVTERPSGVPHRFSGSKSGNTASLTVSGLQPEDEADYFCCAYGGKYLVVFGGGTKVTVL
B5: TCN-540 (5060_F05) (antibody, V domains shown)
VH: QVQLVQSGGGVVQPGRSLRLSCAASGFTFSSYAMHWVRQAPGKGLEWVAIISYDGNDQYYTDSVKGRFTISRDSSKVYLQMHRLRPEDTAVYYCAKEFETSGYFHGSFDYWGQGILVTVSS
VL: QSALTQPASVSGSPGQSITISCTGTSSDVGGYNYVSWYQQHPGKAPKLLIYEVTNWPSGVSNRFSGSKSGNTASLTISGLQAEDEADYYCSSYAGSSTWVFGGGTRVTVL
B6: TCN-532 (5262_H18) (antibody, V domains shown)
VH: QVQLQESGPGLVKPSETLSLTCTVSGGSVSSETYYWSWIRQPPGKGLEWIGYIYYIGNTDYRPSLKSRVTISLDTSKNQFSLKLSSVTAADTAVYYCARGAYYDSSGYPAFYIWGQGTMVTVSS
VL: QSVLTQPPSVSGAPGQRVTISCTGSSSNIGSDYDVHWYKQLPGTAPKLLIFGNSNRPSGVPDRFSGSKSGTSASLAITGLQAEDEADYYCQSYDSSLSGFHVFGSGTKVTVL
B7: TCN-530 (5248_H10a) (antibody, V domains shown)
VH: QVQLVQSGAEVRKPGSSVKVSCKASGGPFMSYAIGWVRQAPGQGLEWMGGINPVFGRPHYAQKFQGRVTIATDDSTKTSYMELSSLTSEDTGMYYCASRYSRSSPGTFESWGQGTLVTVSS
VL: EIVMTQFPATLSVSPGERVTLSCRASQSVSNNLAWYQQKPGQPPRLLIYDASTRATGVPAKFSGTGSGTEFTLSISSLQSEDFAVYYCQQYHNWPPSYSFGLGTKLEIK
B8: TCN-533 (5256_A17) (antibody, V domains shown)
VH: QVQLVQSGADVKKPGSSVTVSCKASGGSFSNYGINWVRQAPGQGLEWMGGIIPLINAPNYAPKFQGRVTITADMFSNIVSLQLTSLRTDDTAVYYCARRKMTTAIDYWGQGTLVTVSS
VL: QPVLSQPPSASASLGASVTLTCTLSSGFDNYQVAWYQQRPGKGPRFVMRVGNGGNVASKGDGIPDRFSVSGSGLNRYLTIKNIQEDDESDYYCGADHGSGNNFVSPYVFGGGTKLTVL
B9: TCN-539 (5056_A08) (antibody, V domains shown)
VH: QVQLVESGGGVVQPGRSLRLSCAASEITFITYAMHWVRQAPGKGLEWVALISDDGSNKFYADSVKGRFTISRDNSKNTLYLQMNSLRAEDTAAYYCAREGVYFDSGTYRGYFDYWGQETLVTVSS
VL: EIVLTQSPATLSLSPGERATLSCRASQSVSSYLAWYQQKPGQAPRLLIYDASNRATGIPARFSGSGSGTDFTLTISSLEPEDFAVYYCQQRSHWPPITFGQGTRLEIK
B10: TCN-536 (5095_N01) (antibody, V domains shown)
VH: QVQLQQWGAGLLKPSETLSLTCAVYGGSFSVSGYYWSWIRQPPGRGLEWIGEISHGGSTNYNPSLKSRVTISVDTTKNQFSLRLSSVTAADTAVYYCARGTDPDTEVYCRVGNCAAFDYWGQGSLVTVSS
VL: EIILAQSPGTLSLSPGERATLSCRASQFVSTRSLAWYQQRPGQAPRLLIYGASSRATGIPDRFSGSGSGTDFTLTISRLEPEDFAVYYCQHYGYSPRYAFGQGSKVEIK
B11: TCN-535 (5246_P19) (antibody, V domains shown)
VH: QVQLVQSGSEVKKPGTSVKVSCTASGSVFTNYGISWVRQAPGQGLEWMGGIIPLFGAAKYAQKFQGRVTITADESTKTVYMELSRLTSKDTAIYFCAKAPRVYEYYFDQWGQGTPVTVSS
VL: EIVLTQSPGTLSLSPGERATLSCRASQSVSSSQLAWYQQKPGQAPRLIIYGASTRATGIPDRFSGSGSGTDFTLTIGRLEPEDFAVFFCQQYSTSPPTFGQGTKVDFK
B12: TCN-521 (3280_D18) (antibody, V domains shown)
VH: EVQLVQSGGGLVQPGGSLRLACVVSGFTVTSNYITWVRQAPGKGLEWVSVIYSHGRAYYSASVNGRFTISRHTSKNTVYLEMNSLRPEDTAVYYCAGGGLVGGYDEYFFDYWGQGTLATVSS
VL: ETVLTQSPGTLSLTPGERATLSCRVGQSVSGSHLAWYQQKPGQAPRLLIYGASSRATGIPDRFGGSVSGTDFTLTISRLEPEDSAVYYCQQYGDSRYTFGQGTKLEIK
B13: TCN-528 (5087_P17) (antibody, V domains shown)
VH: QVQLVQSGSEVKKPGASVKVSCKASGYTFTNYDINWIRQAPGQGLEWMGWINPNSGTTGSAQRFQGRVTITVDTSITTVYMELSSLRSDDTAIYYCARGRELLRLQHFLTDSQSERRDCFDPWGQGTLVTVSS
VL: DIQMTQSPSSLSASVGDRVTITCRANQDIGIYLNWYQQNPGKVPKLLLHGASSLQGGVPSRFSASGSGTDFTLTIHSLQPEDLATYYCQQSRRLPYTFGQGTRVELK
B14: TCN-526 (5084_C17) (antibody, V domains shown)
VH: EVLMVESGGGLVQPGGSVRLSCVASGFSFSSHWMTWVRQAPGKGLEWVANIEDDGGDKYYVDSVKGRFIISRDNAKNSVYLQMNSLRAEDTAVYFCARGSGSSDRSDYDPHYYYYLDVWGKGATVTVSS
VL: DIQLTQSPSSLSASVGDRVTITCRASQSISRYLNWYQQKPGKAPKLLLFAASTLLDGVPSRFSGSGSGTDFTLTISSLQPEDFATYYCQRNHSPSWTFGQGTRVEIK
B15: TCN-527 (5086_C06) (antibody, V domains shown)
VH: QVQLQESGPGLVKPSETLSLNCAVSGGSISNYYWSWIRQPPGKGLEWIGYISYNGRPKYNPSLTSRVTISVDTSKDQFSLELRSVTAADTALYYCARETRFGELLSPYDAFEIWGQGTMVTVSS
VL: DIQMTQSPSSLSASVGDRVTMTCRASQNIRSYLNWYQQRPGTAPKLLIYAASTLHSGVPSRFSGGGSGTDFTLTINNLQPEDFASYYCQQSYDNPQTFGQGTKVEIK

Each binder was assayed against Hemagglutinin of influenza A/Japan/305/57 (H2N2), on inactivated whole virions (Influenza A virus A/Japan/305/1957 …, UniProt P03451 16-562) (assay: ELISA, B cell culture supernatant on inactivated whole virions).
Work on B1 yielded an OD450 of 2.56 OD450.
Binder B2 has an OD450 of 0.67 OD450.
B3 gave an OD450 of 1.62 OD450.
For B4, the OD450 was 1.23 OD450.
Binder B5 has an OD450 of 3.62 OD450.
With B6 the OD450 was 0.07 OD450.
B7 showed an OD450 of 1.73 OD450.
With B8 the OD450 was 1.1 OD450.
Work on B9 yielded an OD450 of 0.06 OD450.
B10 gave an OD450 of 0.08 OD450.
In the case of B11, the OD450 is reported as 1.46 OD450.
In the case of B12, the OD450 is reported as 3.1 OD450.
B13 was tested, and the OD450 was 2.82 OD450.
B14 was tested, and the OD450 was 0.07 OD450.
In the case of B15, the OD450 is reported as 1.48 OD450.
